According to article doi:10.1101/2021.01.13.426575:

Target: DPP9, short isoform (DPP9S), co-expressed with CARD8 for cryo-EM (human), Q86TI2
Assay: cryo-EM structure
Settings: remark: other sources report otherwise

stoichiometry N: 2
B1: DPP9, short isoform (DPP9S), co-expressed with CARD8 for cryo-EM, Q86TI2-1 1-863 (enzyme)
chain: MATTGTPTADRGDAAATDDPAARFQVQKHSWDGLRSIIHGSRKYSGLIVNKAPHDFQFVQKTDESGPHSHRLYYLGMPYGSRENSLLYSEIPKKVRKEALLLLSWKQMLDHFQATPHHGVYSREEELLRERKRLGVFGITSYDFHSESGLFLFQASNSLFHCRDGGKNGFMVSPMKPLEIKTQCSGPRMDPKICPADPAFFSFINNSDLWVANIETGEERRLTFCHQGLSNVLDDPKSAGVATFVIQEEFDRFTGYWWCPTASWEGSEGLKTLRILYEEVDESEVEVIHVPSPALEERKTDSYRYPRTGSKNPKIALKLAEFQTDSQGKIVSTQEKELVQPFSSLFPKVEYIARAGWTRDGKYAWAMFLDRPQQWLQLVLLPPALFIPSTENEEQRLASARAVPRNVQPYVVYEEVTNVWINVHDIFYPFPQSEGEDELCFLRANECKTGFCHLYKVTAVLKSQGYDWSEPFSPGEDEFKCPIKEEIALTSGEWEVLARHGSKIWVNEETKLVYFQGTKDTPLEHHLYVVSYEAAGEIVRLTTPGFSHSCSMSQNFDMFVSHYSSVSTPPCVHVYKLSGPDDDPLHKQPRFWASMMEAASCPPDYVPPEIFHFHTRSDVRLYGMIYKPHALQPGKKHPTVLFVYGGPQVQLVNNSFKGIKYLRLNTLASLGYAVVVIDGRGSCQRGLRFEGALKNQMGQVEIEDQVEGLQFVAEKYGFIDLSRVAIHGWSYGGFLSLMGLIHKPQVFKVAIAGAPVTVWMAYDTGYTERYMDVPENNQHGYEAGSVALHVEKLPNEPNRLLILHGFLDENVHFFHTNFLVSQLIRAGKPYQLQIYPNERHSIRCPESGEHYEVTLLHFLQEYL
